The target in test [1] is T1, rat calcitonin receptor (rat, UniProt P32214 25-516).
T1 construct: whole, on cells; Used as membranes prepared from the transfected cells; also called rCTR; rat calcitonin (a) receptor
T1 sequence (looked up): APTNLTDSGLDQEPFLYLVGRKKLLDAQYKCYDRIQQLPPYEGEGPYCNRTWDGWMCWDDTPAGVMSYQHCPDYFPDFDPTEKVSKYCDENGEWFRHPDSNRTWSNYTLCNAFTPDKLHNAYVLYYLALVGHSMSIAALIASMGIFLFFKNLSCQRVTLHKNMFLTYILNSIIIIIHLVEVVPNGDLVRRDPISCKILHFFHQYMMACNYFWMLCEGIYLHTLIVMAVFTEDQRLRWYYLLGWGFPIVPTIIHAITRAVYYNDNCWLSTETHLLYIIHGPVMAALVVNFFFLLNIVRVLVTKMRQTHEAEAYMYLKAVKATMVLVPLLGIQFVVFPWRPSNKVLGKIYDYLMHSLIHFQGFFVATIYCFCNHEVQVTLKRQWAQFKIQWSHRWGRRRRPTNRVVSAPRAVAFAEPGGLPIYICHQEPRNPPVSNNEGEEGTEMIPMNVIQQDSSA
Nature of the test: ratio IC50 rat calcitonin receptor / IC50 rat amylin receptor (Assays VIII and VI).

For test [2], the target named is T2, rat amylin receptor (rat calcitonin receptor + rat RAMP 3) (rat, UniProt P32214 25-516; Q9JJ73 23-147).
T2 construct: whole, on cells; Used as membranes prepared from the transfected cells; also called rAmylin-R; rat amylin 3(a) receptor
T2 sequence (looked up) 1: T1 sequence (looked up)
T2 sequence (looked up) 2: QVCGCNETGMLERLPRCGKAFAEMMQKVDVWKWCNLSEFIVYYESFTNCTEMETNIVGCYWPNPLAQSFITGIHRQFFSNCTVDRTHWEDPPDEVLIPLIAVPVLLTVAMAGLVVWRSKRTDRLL
Nature of the test: SPA competition with 125I-rat amylin, membranes of BHK cells with rat calcitonin receptor + rat RAMP3 (Assay VI).

The target of test [3] is T3, human calcitonin receptor (human, UniProt P30988 25-474).
T3 construct: whole, on cells; Used as membranes prepared from the transfected cells (Assay VII); also called hCTR; hCT
T3 sequence (looked up): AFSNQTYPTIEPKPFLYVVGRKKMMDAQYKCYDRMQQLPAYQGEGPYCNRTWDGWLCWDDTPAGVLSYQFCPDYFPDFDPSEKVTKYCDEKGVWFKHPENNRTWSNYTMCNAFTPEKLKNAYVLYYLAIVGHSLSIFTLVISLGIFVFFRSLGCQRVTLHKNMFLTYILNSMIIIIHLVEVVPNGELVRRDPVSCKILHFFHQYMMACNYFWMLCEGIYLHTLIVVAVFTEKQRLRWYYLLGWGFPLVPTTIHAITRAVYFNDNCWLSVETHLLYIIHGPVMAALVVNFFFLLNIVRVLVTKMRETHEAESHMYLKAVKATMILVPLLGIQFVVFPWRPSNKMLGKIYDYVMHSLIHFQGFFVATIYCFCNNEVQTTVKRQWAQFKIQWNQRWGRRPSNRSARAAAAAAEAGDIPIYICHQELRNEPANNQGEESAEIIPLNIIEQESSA
Nature of the test: ratio IC50 human calcitonin receptor / IC50 human amylin receptor (Assays VII and V). The essentials:
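Competition binding by SPA with cell membranes (35 ng/μL) and SPA beads in 50 mM Hepes pH 7.4 with 1 mM CaCl2, 5 mM MgCl2, 0.1% OA and 0.02% Tween20. Incubated 120 min at 25 °C with shaking, then counted.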

The target in test [4] is T1, rat calcitonin receptor. In words: SPA competition with 125I-calcitonin, membranes of BHK cells with rat calcitonin receptor (Assay VIII).
In test [5] the target is T4, human calcitonin receptor (human, UniProt P30988 25-474).
T4 construct: whole, on cells; Membranes of BHK cells stably transfected with the human calcitonin receptor (Assay VII); also called hCTR; hCT
T4 sequence (looked up): T3 sequence (looked up)
In words: SPA competition against 125I-calcitonin, membranes of BHK cells with human calcitonin receptor (Assay VII). The procedure:
Membranes were prepared in the following way; the cells were rinsed with PBS and incubated with Versene for approximately 5 min before harvesting. The cells were flushed with PBS and the cell-suspension was centrifuged for 5 min at 1000 rpm. Cells were homogenized (Ultrathurrax) in a buffer containing 20 mM Na-HEPES and 10 mM EDTA (pH 7.4) and centrifuged at 20.000 rpm for 15 min. The resulting pellet was resuspended, homogenized and centrifuged (20.000 rpm, 15 min) in a buffer containing 20 mM Na-HEPES and 0.1 mM EDTA (pH 7.4, buffer 2). The resulting pellet was resuspended in buffer 2 and protein concentration was measured (BCA protein Assay, Pierce). The homogenate was kept cold during the whole procedure. The membranes were kept at −80° C. until use. Assay was performed in a 384 well Optiplate (PerkinElmer) in a total volume of 40 ul. Membranes were mixed with SPA beads. Final concentration of membranes 35 ng/μL final and Final concentration of SPA beads was 0.05 mg/well. Test-compounds were dissolved in DMSO and further diluted in assay buffer (50 mM Hepes, pH 7.4, 1 mM CaCl2, 5 mM MgCl₂, 0.1% OA and 0.02% Tween20). […] The final mixture was incubated for 120 min with shaking at 400 rpm at 25° C. prior to centrifugation (1500 rpm, 10 min). Samples were analyzed on TopCounter™ (Packard). The […] was calculated using (one site binding competition analysis) GraphPad Prism5 as a measure of receptor affinity.

From US20140087995A1 (published 2014) come the findings set out here.

Numbered stars: 1 amine (or outer) side, 2 acyl side, 3 side chain; on linkers, the order of the positions; unused ones are H or OH. Bridge positions count the residues as written; N and C are the ends. Square brackets hold non-standard residues; d marks the D form. Side chains are listed from the residue outwards. Ends that are not written are not given here. * marks the point of attachment. C20 diacid = O=C(O)CCCCCCCCCCCCCCCCCCC(=O)*; γGlu = O=C(O)[C@H](CCC(=O)[*:2])N[*:1]

B1: N^ε1-[(4S)-4-carboxy-4-[[(4S)-4-carboxy-4-(19-carboxynonadecanoylamino)butanoyl]amino]butanoyl]-[Asp14,Arg17,Pro22,Pro26,Asp35]-h-amylin (peptide)
peptide: K([γGlu-γGlu-C20 diacid])CNTATCATQRLADFLRHSSNPFGAPLSSTNVGSDTY-NH2
modifications: disulfide 2-7; N-terminus assumed
SMILES: CC(C)C[C@H](NC(=O)[C@H](CCCNC(=N)N)NC(=O)[C@H](CCC(N)=O)NC(=O)[C@@H](NC(=O)[C@H](C)NC(=O)[C@@H]1CSSC[C@H](NC(=O)[C@@H](N)CCCCNC(=O)CC[C@H](NC(=O)CC[C@H](NC(=O)CCCCCCCCCCCCCCCCCCC(=O)O)C(=O)O)C(=O)O)C(=O)N[C@@H](CC(N)=O)C(=O)N[C@@H]([C@@H](C)O)C(=O)N[C@@H](C)C(=O)N[C@@H]([C@@H](C)O)C(=O)N1)[C@@H](C)O)C(=O)N[C@@H](C)C(=O)N[C@@H](CC(=O)O)C(=O)N[C@@H](Cc1ccccc1)C(=O)N[C@@H](CC(C)C)C(=O)N[C@@H](CCCNC(=N)N)C(=O)N[C@@H](Cc1c[nH]cn1)C(=O)N[C@@H](CO)C(=O)N[C@@H](CO)C(=O)N[C@@H](CC(N)=O)C(=O)N1CCC[C@H]1C(=O)N[C@@H](Cc1ccccc1)C(=O)NCC(=O)N[C@@H](C)C(=O)N1CCC[C@H]1C(=O)N[C@@H](CC(C)C)C(=O)N[C@@H](CO)C(=O)N[C@@H](CO)C(=O)N[C@H](C(=O)N[C@@H](CC(N)=O)C(=O)N[C@H](C(=O)NCC(=O)N[C@@H](CO)C(=O)N[C@@H](CC(=O)O)C(=O)N[C@H](C(=O)N[C@@H](Cc1ccc(O)cc1)C(N)=O)[C@@H](C)O)C(C)C)[C@@H](C)O
notes: Derivative of human amylin; also called compound 3
On to B1, for which the “Ratio rCT/rAmylin binding” value with rat calcitonin receptor [1] turned out to be 16.7. Further, the IC50 in test [2] amounted to 1 nM; with rat calcitonin receptor [4], 16.7 nM. For the same molecule, the “Ratio hCT/hAmylin binding” value in test [3] turned out to be 17.3.

B2: N{Alpha-1}-[(4S)-4-carboxy-4-(19-carboxynonadecanoylamino)butanoyl]-[Glu14,Arg17,Pro21,Pro27,Lys34]-h-amylin (peptide)
peptide: {C20 diacid-γGlu}-KCNTATCATQRLAEFLRHSSPNFGAIPSSTNVGKNTY-NH2
modifications: disulfide 2-7
SMILES: CC[C@H](C)[C@H](NC(=O)[C@H](C)NC(=O)CNC(=O)[C@H](Cc1ccccc1)NC(=O)[C@H](CC(N)=O)NC(=O)[C@@H]1CCCN1C(=O)[C@H](CO)NC(=O)[C@H](CO)NC(=O)[C@H](Cc1c[nH]cn1)NC(=O)[C@H](CCCNC(=N)N)NC(=O)[C@H](CC(C)C)NC(=O)[C@H](Cc1ccccc1)NC(=O)[C@H](CCC(=O)O)NC(=O)[C@H](C)NC(=O)[C@H](CC(C)C)NC(=O)[C@H](CCCNC(=N)N)NC(=O)[C@H](CCC(N)=O)NC(=O)[C@@H](NC(=O)[C@H](C)NC(=O)[C@@H]1CSSC[C@H](NC(=O)[C@H](CCCCN)NC(=O)CC[C@H](NC(=O)CCCCCCCCCCCCCCCCCCC(=O)O)C(=O)O)C(=O)N[C@@H](CC(N)=O)C(=O)N[C@@H]([C@@H](C)O)C(=O)N[C@@H](C)C(=O)N[C@@H]([C@@H](C)O)C(=O)N1)[C@@H](C)O)C(=O)N1CCC[C@H]1C(=O)N[C@@H](CO)C(=O)N[C@@H](CO)C(=O)N[C@H](C(=O)N[C@@H](CC(N)=O)C(=O)N[C@H](C(=O)NCC(=O)N[C@@H](CCCCN)C(=O)N[C@@H](CC(N)=O)C(=O)N[C@H](C(=O)N[C@@H](Cc1ccc(O)cc1)C(N)=O)[C@@H](C)O)C(C)C)[C@@H](C)O
notes: Derivative of human amylin; also called compound 36
Turning to B2, the “Ratio rCT/rAmylin binding” value with rat calcitonin receptor [1] was 32.4. The IC50 in test [2] is 1.86 nM; with rat calcitonin receptor [4], 60.1 nM. Also, in test [3], the “Ratio hCT/hAmylin binding” value was found to be 15.7.

B3: N^ε1-[(4S)--4-carboxy-4-(19-carboxynonadecanoylamino)butanoyl]-[Glu14,Arg17,Pro21,Pro27,Pro37]-h-amylin (peptide)
peptide: K([γGlu-C20 diacid])CNTATCATQRLAEFLRHSSPNFGAIPSSTNVGSNTP-NH2
modifications: disulfide 2-7; N-terminus assumed
SMILES: CC[C@H](C)[C@H](NC(=O)[C@H](C)NC(=O)CNC(=O)[C@H](Cc1ccccc1)NC(=O)[C@H](CC(N)=O)NC(=O)[C@@H]1CCCN1C(=O)[C@H](CO)NC(=O)[C@H](CO)NC(=O)[C@H](Cc1c[nH]cn1)NC(=O)[C@H](CCCNC(=N)N)NC(=O)[C@H](CC(C)C)NC(=O)[C@H](Cc1ccccc1)NC(=O)[C@H](CCC(=O)O)NC(=O)[C@H](C)NC(=O)[C@H](CC(C)C)NC(=O)[C@H](CCCNC(=N)N)NC(=O)[C@H](CCC(N)=O)NC(=O)[C@@H](NC(=O)[C@H](C)NC(=O)[C@@H]1CSSC[C@H](NC(=O)[C@@H](N)CCCCNC(=O)CC[C@H](NC(=O)CCCCCCCCCCCCCCCCCCC(=O)O)C(=O)O)C(=O)N[C@@H](CC(N)=O)C(=O)N[C@@H]([C@@H](C)O)C(=O)N[C@@H](C)C(=O)N[C@@H]([C@@H](C)O)C(=O)N1)[C@@H](C)O)C(=O)N1CCC[C@H]1C(=O)N[C@@H](CO)C(=O)N[C@@H](CO)C(=O)N[C@H](C(=O)N[C@@H](CC(N)=O)C(=O)N[C@H](C(=O)NCC(=O)N[C@@H](CO)C(=O)N[C@@H](CC(N)=O)C(=O)N[C@H](C(=O)N1CCC[C@H]1C(N)=O)[C@@H](C)O)C(C)C)[C@@H](C)O
notes: Derivative of human amylin; also called compound 12
Take B3: the “Ratio rCT/rAmylin binding” value in the test with rat calcitonin receptor [1] was 5. Further, the results for the IC50 (in test [2]; with rat calcitonin receptor [4]) were 0.544 nM and 2.71 nM, respectively. Also, the “Ratio hCT/hAmylin binding” value in test [3] was 2.5.

B4: N^ε1-[(4S)-4-carboxy-4-[[(4S)-4-carboxy-4-(19-carboxynonadecanoylamino)butanoyl]amino]butanoyl]-[D-Asp14,Arg17,Pro21,Pro27,Arg35]-h-amylin (peptide)
peptide: K([γGlu-γGlu-C20 diacid])CNTATCATQRLA[dD]FLRHSSPNFGAIPSSTNVGSRTY-NH2
modifications: disulfide 2-7; N-terminus assumed
SMILES: CC[C@H](C)[C@H](NC(=O)[C@H](C)NC(=O)CNC(=O)[C@H](Cc1ccccc1)NC(=O)[C@H](CC(N)=O)NC(=O)[C@@H]1CCCN1C(=O)[C@H](CO)NC(=O)[C@H](CO)NC(=O)[C@H](Cc1c[nH]cn1)NC(=O)[C@H](CCCNC(=N)N)NC(=O)[C@H](CC(C)C)NC(=O)[C@H](Cc1ccccc1)NC(=O)[C@@H](CC(=O)O)NC(=O)[C@H](C)NC(=O)[C@H](CC(C)C)NC(=O)[C@H](CCCNC(=N)N)NC(=O)[C@H](CCC(N)=O)NC(=O)[C@@H](NC(=O)[C@H](C)NC(=O)[C@@H]1CSSC[C@H](NC(=O)[C@@H](N)CCCCNC(=O)CC[C@H](NC(=O)CC[C@H](NC(=O)CCCCCCCCCCCCCCCCCCC(=O)O)C(=O)O)C(=O)O)C(=O)N[C@@H](CC(N)=O)C(=O)N[C@@H]([C@@H](C)O)C(=O)N[C@@H](C)C(=O)N[C@@H]([C@@H](C)O)C(=O)N1)[C@@H](C)O)C(=O)N1CCC[C@H]1C(=O)N[C@@H](CO)C(=O)N[C@@H](CO)C(=O)N[C@H](C(=O)N[C@@H](CC(N)=O)C(=O)N[C@H](C(=O)NCC(=O)N[C@@H](CO)C(=O)N[C@@H](CCCNC(=N)N)C(=O)N[C@H](C(=O)N[C@@H](Cc1ccc(O)cc1)C(N)=O)[C@@H](C)O)C(C)C)[C@@H](C)O
notes: Residue 14 is D-aspartic acid (printed 14d)
Take B4: the IC50 in test [5] was found to be 112 nM.

As usually defined, the IC50 is the concentration that gives 50% inhibition.
